Measured values taken from patent publication US20040166543A1 (Dana-Farber, published 2004).

Biological target: T1, MUC1 (full-length wild-type DF3/MUC1 glycoprotein) (human, UniProt P15941 24-1255)
T1 construct: whole, on cells; One entry for endogenous and transfected wild-type MUC1; Co-immunoprecipitated from NP-40 lysates with mAb DF3; also called wild-type MUC1
Assay: co-IP from ZR-75-1 lysate: anti-MUC1 IP, anti-PKCµ blot (FIG. 13B)

B1: PKCµ (protein kinase Cµ), endogenous in ZR-75-1 cells (enzyme, human, UniProt Q15139 1-912, looked up)
chain: MSAPPVLRPPSPLLPVAAAAAAAAAALVPGSGPGPAPFLAPVAAPVGGISFHLQIGLSREPVLLLQDSSGDYSLAHVREMACSIVDQKFPECGFYGMYDKILLFRHDPTSENILQLVKAASDIQEGDLIEVVLSASATFEDFQIRPHALFVHSYRAPAFCDHCGEMLWGLVRQGLKCEGCGLNYHKRCAFKIPNNCSGVRRRRLSNVSLTGVSTIRTSSAELSTSAPDEPLLQKSPSESFIGREKRSNSQSYIGRPIHLDKILMSKVKVPHTFVIHSYTRPTVCQYCKKLLKGLFRQGLQCKDCRFNCHKRCAPKVPNNCLGEVTINGDLLSPGAESDVVMEEGSDDNDSERNSGLMDDMEEAMVQDAEMAMAECQNDSGEMQDPDPDHEDANRTISPSTSNNIPLMRVVQSVKHTKRKSSTVMKEGWMVHYTSKDTLRKRHYWRLDSKCITLFQNDTGSRYYKEIPLSEILSLEPVKTSALIPNGANPHCFEITTANVVYYVGENVVNPSSPSPNNSVLTSGVGADVARMWEIAIQHALMPVIPKGSSVGTGTNLHRDISVSISVSNCQIQENVDISTVYQIFPDEVLGSGQFGIVYGGKHRKTGRDVAIKIIDKLRFPTKQESQLRNEVAILQNLHHPGVVNLECMFETPERVFVVMEKLHGDMLEMILSSEKGRLPEHITKFLITQILVALRHLHFKNIVHCDLKPENVLLASADPFPQVKLCDFGFARIIGEKSFRRSVVGTPAYLAPEVLRNKGYNRSLDMWSVGVIIYVSLSGTFPFNEDEDIHDQIQNAAFMYPPNPWKEISHEAIDLINNLLQVKMRKRYSVDKTLSHPWLQDYQTWLDLRELECKIGERYITHESDDLRWEKYAGEQGLQYPTHLINPSASHSDTPETEETEMKALGERVSIL
notes: whole, on cells
- binding result: no binding
